What was measured:
[1] = target: T1, Cynomolgus CD3 on Cyno CD3+ Jurkat cells (cynomolgus, UniProt Q95LI5 22-198); test: cell binding, cyno CD3+ Jurkat cells
T1 construct: whole, on cells; CD3 on cells; also called cCD3

[2] = target: T2, Human CD3 on Human CD3+ Jurkat cells (human, UniProt P07766 23-207); test: cell binding hCD3, fold over background
T2 construct: whole, on cells; CD3 complex on cells; also called hCD3

[3] = target: T2, Human CD3 on Human CD3+ Jurkat cells; test: cell binding, human CD3+ Jurkat cells
[4] = target: T1, Cynomolgus CD3 on Cyno CD3+ Jurkat cells; test: cell binding cCD3, fold over background
Human CD3εδ-Fc (human) [5] = target: Human CD3εδ-Fc (human) (UniProt P04234); test: KD of scFv-Fc or IgG on human CD3εδ-Fc; instrument not given
Sequence of Human CD3εδ-Fc (human) (chain, as listed by the source mutant, chain 1 of 2): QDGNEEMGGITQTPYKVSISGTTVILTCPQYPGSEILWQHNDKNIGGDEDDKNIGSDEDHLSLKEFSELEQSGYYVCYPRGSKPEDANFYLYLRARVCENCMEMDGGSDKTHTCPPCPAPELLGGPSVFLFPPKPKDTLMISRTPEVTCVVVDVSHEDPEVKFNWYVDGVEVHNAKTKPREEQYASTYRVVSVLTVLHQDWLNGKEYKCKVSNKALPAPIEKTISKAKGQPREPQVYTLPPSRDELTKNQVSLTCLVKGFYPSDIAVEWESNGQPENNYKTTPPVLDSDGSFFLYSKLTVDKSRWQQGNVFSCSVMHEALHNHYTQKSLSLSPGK
Sequence of Human CD3εδ-Fc (human) (P04234 22-105, stated change not applied, chain 2 of 2): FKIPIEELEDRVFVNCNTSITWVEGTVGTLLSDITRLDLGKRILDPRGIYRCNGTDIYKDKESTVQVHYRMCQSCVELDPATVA

Human CD3εδ-Fc (human) [6] = target: Human CD3εδ-Fc (human) (UniProt P04234); test: Biacore SPR, monovalent KD, biotinylated human CD3εδ-Fc
[7] = target: Cyno CD3εδ-Fc (cynomolgus) (UniProt Q95LI8); test: KD of scFv-Fc or IgG on cyno CD3εδ-Fc; instrument not given
Sequence of Cyno CD3εδ-Fc (cynomolgus) (chain, as listed by the source mutant, chain 1 of 2): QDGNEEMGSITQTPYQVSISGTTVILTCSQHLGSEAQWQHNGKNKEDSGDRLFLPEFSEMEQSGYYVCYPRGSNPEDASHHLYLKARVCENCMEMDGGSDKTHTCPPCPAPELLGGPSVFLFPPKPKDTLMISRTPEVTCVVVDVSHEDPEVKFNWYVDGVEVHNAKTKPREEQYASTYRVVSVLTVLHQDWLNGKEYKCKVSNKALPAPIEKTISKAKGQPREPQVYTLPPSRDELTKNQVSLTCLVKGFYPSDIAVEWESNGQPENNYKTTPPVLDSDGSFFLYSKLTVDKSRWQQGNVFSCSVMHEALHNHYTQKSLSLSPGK
Sequence of Cyno CD3εδ-Fc (cynomolgus) (Q95LI8 22-105, stated change not applied, chain 2 of 2): as the sequence (P04234 22-105, stated change not applied, chain 2 of 2) above, with I5V, N15K, I20V, S32T, D33N, I34N, T64A, S74N, V83L counted along it

Human CD3εδ-Fc (human) [8] = target: Human CD3εδ-Fc (human) (UniProt P04234); test: KD of scFv-Fc or IgG on human CD3εδ-Fc; instrument not given; second row for this clone

T1 sequence (Q95LI5 22-198): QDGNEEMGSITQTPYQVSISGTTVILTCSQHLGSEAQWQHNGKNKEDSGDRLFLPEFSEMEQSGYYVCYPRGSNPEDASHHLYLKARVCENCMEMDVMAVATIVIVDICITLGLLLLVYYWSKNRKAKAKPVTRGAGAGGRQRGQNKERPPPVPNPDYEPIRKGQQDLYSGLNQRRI
T2 sequence (P07766 23-207): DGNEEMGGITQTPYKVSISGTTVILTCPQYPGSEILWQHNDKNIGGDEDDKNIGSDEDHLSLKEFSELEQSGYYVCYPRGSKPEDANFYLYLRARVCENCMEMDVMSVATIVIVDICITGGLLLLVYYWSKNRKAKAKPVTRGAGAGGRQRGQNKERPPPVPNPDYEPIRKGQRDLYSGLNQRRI

Binder	Cell Binding Fold Over Background (FOB) [1]	Cell Binding hCD3 (FOB) [2]	Cell Binding Fold Over Background (FOB) [3]	Cell Binding cCD3 (FOB) [4]	Kd (Human CD3εδ-Fc (human) [5])	Kd (Human CD3εδ-Fc (human) [6])	Kd [7]	Kd (Human CD3εδ-Fc (human) [8])
ADI-42594 (antibody, V domains shown, also called Ab1) VH: QVQLVQSGAEVKKPGASVKVSCKASGFNIKDYYMHWVRQAPGQRLEWIGWIDLENANTVYDAKFQGRVTITRDTSASTAYMELSSLRSEDTAVYYCARDAYGRYFYDVWGQGTLVTVSS VL: DIVMTQSPDSLAVSLGERATINCKSSQSLLNARTGKNYLAWYQQKPGQPPKLLIYWASTRESGVPDRFSGSGSGTDFTLTISSLQAEDVAVYYCKQSYFRRTFGGGTKVEIK	16 FOB	36 FOB	14 FOB	122 FOB	0.2 nM	0.47 nM	2 nM	
ADI-45975 (antibody, V domains shown, also called Ab11) VH: QVQLVQSGAEVKKPGASVKVSCKASGFNIKDYYMHWVRQAPGQRLEWIGWIDLENANTVYDAKFQGRVTITRDTSASTAYMELSSLRSEDTAVYYCARDAYGQYFYDVWGQGTLVTVSS VL: DIVMTQSPDSLAVSLGERATINCKSSQSLLNARTRKNYLAWYQQKPGQPPKLLIYWASTRESGVPDRFSGSGSGTDFTLTISSLQAEDVAVYYCKQSYFRRTFGGGTKVEIK	17 FOB	86 FOB	10 FOB	142 FOB	0.067 nM	0.21 nM	1.4 nM	
ADI-45985 (antibody, V domains shown, also called Ab22) VH: QVQLVQSGAEVKKPGASVKVSCKASGFNIKDYYMHWVRQAPGQRLEWIGWIDLENANTVYDAKFQGRVTITRDTSASTAYMELSSLRSEDTAVYYCARDAYGRYFYDVWGQGTLVTVSS VL: DIVMTQSPDSLAVSLGERATINCKTSQSLLNARTNKNYLAWYQQKPGQPPKLLIYWASTRESGVPDRFSGSGSGTDFTLTISSLQAEDVAVYYCVQSYFRRTFGGGTKVEIK		21 FOB		23 FOB	0.08 nM		1.2 nM	
ADI-46366 (antibody, V domains shown, also called Ab50) VH: QVQLVQSGAEVKKPGASVKVSCKASGFNIKDYYMHWVRQAPGQRLEWIGWIDLENANTVYDAKFQGRVTITRDTSASTAYMELSSLRSEDTAVYYCARDAYGQYFYDVWGQGTLVTVSS VL: DIVMTQSPDSLAVSLGERATINCKSSQSLLNARTGKNYLAWYQQKPGQPPKLLIYWASTRESGVPDRFSGSGSGTDFTLTISSLQAEDVAVYYCVQSYFRRTFGGGTKVEIK	32 FOB	43 FOB	16 FOB	108 FOB	0.93 nM	0.23 nM		
ADI-46357 (antibody, V domains shown, also called Ab30) VH: QVQLVQSGAEVKKPGASVKVSCKASGFNIKDYYMHWVRQAPGQRLEWIGWIDLENANTVYDAKFQGRVTITRDTSASTAYMELSSLRSEDTAVYYCARDAYGRYFYDVWGQGTLVTVSS VL: DIVMTQSPDSLAVSLGERATINCKSSQSLLNARTGKNYLAWYQQKPGQPPKLLIYWASTRESGVPDRFSGSGSGTDFTLTISSLQAEDVAVYYCAQSYFRRTFGGGTKVEIK	20 FOB	24 FOB	13 FOB	80 FOB	0.97 nM	0.25 nM		
ADI-46359 (antibody, V domains shown, also called Ab42) VH: QVQLVQSGAEVKKPGASVKVSCKASGFNIKDYYMHWVRQAPGQRLEWIGWIDLENANTVYDAKFQGRVTITRDTSASTAYMELSSLRSEDTAVYYCARDAYGQYFYDVWGQGTLVTVSS VL: DIVMTQSPDSLAVSLGERATINCKSSQSLLNARTGKNYLAWYQQKPGQPPKLLIYWASTRESGVPDRFSGSGSGTDFTLTISSLQAEDVAVYYCTQSYFRRTFGGGTKVEIK	28 FOB	43 FOB	15 FOB	102 FOB	0.89 nM	0.22 nM		

Results, then the binder that gave them:

Cell Binding Fold Over Background (FOB) [1]	Cell Binding hCD3 (FOB) [2]	Cell Binding Fold Over Background (FOB) [3]	Cell Binding cCD3 (FOB) [4]	Kd (Human CD3εδ-Fc (human) [5])	Kd (Human CD3εδ-Fc (human) [6])	Kd [7]	Kd (Human CD3εδ-Fc (human) [8])	Binder
30 FOB	19 FOB	18 FOB	112 FOB	0.13 nM	0.12 nM	1.7 nM		ADI-45959 (antibody, V domains shown, also called Ab13) VH: QVQLVQSGAEVKKPGASVKVSCKASGFNIKDYYMHWVRQAPGQRLEWIGWIDLENANTVYDAKFQGRVTITRDTSASTAYMELSSLRSEDTAVYYCARDAYGRYFYDVWGQGTLVTVSS VL: DIVMSQSPDSLAVSLGERATINCKSSQSLLNARTGKNYLAWYQQKPGQPPKLLIYWASTRSSGVPDRFSGSGSGTDFTLTISSLQAEDVAVYYCVQSYFRRTFGGGTKVEIK
	29 FOB		46 FOB	0.16 nM		2.4 nM	1.1 nM	ADI-42596 (antibody, V domains shown, also called Ab2) VH: QVQLVQSGAEVKKPGASVKVSCKASGFNIKDYYMHWVRQAPGQRLEWIGWIDLENANTVYDAKFQGRVTITRDTSASTAYMELSSLRSEDTAVYYCARDAYGRYFYDVWGQGTLVTVSS VL: DIVMTQSPDSLAVSLGERATINCKSSQSLLNARTRKNYLAWYQQKPGQPPKLLIYWASTRESGVPDRFSGSGSGTDFTLTISSLQAEDVAVYYCKQSYFRRTFGGGTKVEIK
30 FOB	22 FOB	17 FOB	91 FOB	0.92 nM	0.12 nM			ADI-46378 (antibody, V domains shown, also called Ab40) VH: QVQLVQSGAEVKKPGASVKVSCKASGFNIKDYYMHWVRQAPGQRLEWIGWIDLENANTVYDAKFQGRVTITRDTSASAAYMELSSLRSEDTAVYYCARDAYGRYFYDVWGQGTLVTVSS VL: DIVMTQSPDSLAVSLGERATINCKSSQSLLNARTRKNYLAWYQQKPGRPPKLLIYWASTRESGVPDRFSGSGSGTDFTLTISSLQAEDVAVYYCVQSYFRRTFGGGTKVEIK

— patent publication US20260209352A1 (Adimab, published 2026)
